From article PMC7305997 (ACS chemical biology, 2020)
Ends that are not written are not given here.

What was measured:
[1] = target: T1, full length human CIB1 (Homo sapiens, UniProt Q99828); assay: Isothermal titration calorimetry; settings: ITC, 25°C, one site binding model; replicates as for Kd
T1 sequence (Q99828 1-191): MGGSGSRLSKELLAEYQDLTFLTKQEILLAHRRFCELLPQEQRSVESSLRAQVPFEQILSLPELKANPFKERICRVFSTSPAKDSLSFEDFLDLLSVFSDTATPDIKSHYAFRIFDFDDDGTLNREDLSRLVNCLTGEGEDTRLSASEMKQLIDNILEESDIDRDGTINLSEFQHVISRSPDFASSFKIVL

[2] = target: T2, biotinylated CIB1 (Homo sapiens, UniProt Q99828); assay: biochemical; format: binding
T2 sequence (Q99828 1-191): T1 sequence (Q99828 1-191)

[3] = target: T3, Full length human CIB1 (calcium and integrin binding protein 1), N-terminal hexahistidine tag (human, UniProt Q99828 1-191); assay: ITC
T3 sequence (looked up): T1 sequence (Q99828 1-191)

With EDGGSFWYGAMKALYG-NH2 [UNC10245092] the “n (binding stoichiometry)” value [1] was 1.1 ± 0.1, the ΔH [1] was -14.4 ± 2.2 kcal/mol and the IC50 [2] was 46 ± 13 nM. For the same molecule, the Kd [2] was 46 ± 13 nM.

With Ac-FWYGAMKALYG [Acetyl short (Ac-FWYGAMKALYG)] the Kd [3] was 52.1 nM, the dH [3] was -14 kcal/mol and the “stoichiometry N” value [3] was 1.1.

For H-EDGGSFWYGAMKALYG-NH2 [UNC10245092 (NH2-EDGGSFWYGAMKALYG-amide)], the Kd [3] was 29.4 nM, the dH [3] was -14.4 kcal/mol and the “stoichiometry N” value [3] was 1.1.

For EDGGSFWYGGMKALYG [UNC10245092 A5G], the dH [3] was -7.7 kcal/mol and the “stoichiometry N” value [3] was 1.

In the case of EDGGSFWAGAMKALYG [UNC10245092 Y3A], the dH [3] is reported as -16.1 kcal/mol and the “stoichiometry N” value [3] is reported as 1.

In the case of EDGGSFWYGAAKALYG [UNC10245092 M6A], the dH [3] is reported as -8.1 kcal/mol and the “stoichiometry N” value [3] is reported as 1.

With EDGGSFWYGAMKGLYG [UNC10245092 A8G] the dH [3] was -13.8 kcal/mol and the “stoichiometry N” value [3] was 1.

EDGGSFWYGAMKAAYG [UNC10245092 L9A] was tested, and the dH [3] was -8.8 kcal/mol and the “stoichiometry N” value [3] was 0.99.

With EDGGSFAYGAMKALYG [UNC10245092 W2A] the dH [3] was -5.9 kcal/mol and the “stoichiometry N” value [3] was 0.67.

EDGGSFWYGAMKALAG [UNC10245092 Y10A] was tested, and the dH [3] was -7.1 kcal/mol and the “stoichiometry N” value [3] was 1.1.

With EDGGSAWYGAMKALYG [UNC10245092 F1A] the dH [3] was -9.8 kcal/mol and the “stoichiometry N” value [3] was 0.94.

Ac-EDGGSFWYGAMKALYG [Acetyl long (Ac-EDGGSFWYGAMKALYG)] was tested, and the Kd [3] was 45 nM, the dH [3] was -16.1 kcal/mol and the “stoichiometry N” value [3] was 1.1.
